Assay results reported in patent US8927007B2, “Formulations for treatment with glucosinolates” (priority 2010, dated 2015).

How the values were obtained:
[1] = Activity of myrosinase immobilized on Concanavalin A-Sepharose gel (sinigrin hydrolysis, absorbance at 227 nm); type: biochemical
Protocol: (§1) Con-A gel (1 ml) was packed in a 3 ml syringe, washed with 5 portions of 5 ml of 10 mM midazole, 1 mD EDTA, 1 mM DTT, 30% glycerol, pH 6.0. Subsequently, 10 ml of purified myrosinase (2.9 units/ml) (from 7 day-old daikon sprouts as described in Shikita et al. Biochem J. (1999) 341:725-732) were applied to the column and the effluent collected and reapplied to the column 3 more times until no activity was detected in the effluent. After washing 5 times with 5 ml of 33 mM potassium phosphate buffer (pH 6.0), 1 mM EDTA, and 0.5 mM ascorbate, the gel was transferred to a 10 ml syringe and mixed with 10 ml of 10 mM sinigrin in 33 mM potassium phosphate buffer. Aliquots (20 μl of the solution was withdrawn from the mixture every 30 sec., diluted with 0.98 ml of the 33 mM phosphate buffer, and the absorbance was measured at 227 nm against the same buffer. After 10 collections (5 min), the gel was washed with 3 portions of 5 ml of 33 mM potassium phosphate buffer, and 3 portions of 5 ml 10 mM midazole, 1 mM EDTA, 1 mD DTT, 30% glycerol, pH 6.0, and stored at 4° C. for the next test.

[2] = Long-term stability of myrosinase on Concanavalin A-Sepharose gels; type: physicochemical
Protocol: as §1, with “After 10 collections (5 min), the gel was washed with 3 portions of 5 ml of 33 mM potassium phosphate buffer, and 3 portions of 5 ml 10 mM midazole, 1 mM EDTA, 1 mD DTT, 30% glycerol, pH 6.0, and stored at 4° C. for the next test.” left out

In the case of “myrosinase (β-thioglucoside glucohydrolase) [Immobilized enzyme]”, the sinigrin hydrolyzed ([1]; immobilized on Con-A gel, 10 ml of 10 mM sinigrin in 33 mM potassium phosphate buffer, 10 collections (5 min)) is reported as “more than 25 μmol”, the “enzymatic activity when immobilized on Con-A gels” value ([1]; immobilized on Con-A gels) is reported as “retain its enzymatic activity” and the stability without refrigeration ([2]; immobilized on Con-A gels, without refrigeration) is reported as “stable indefinitely”. The “changes of activity on storage” value ([2]; over at least the next 7 days, kept at 4° C. in 20% glycerol) was “no significant changes of activity”, the “stability of immobilized enzyme at room temperature” value ([2]; room temperature, period of several weeks) was “stable” and the “elution of the enzyme from the column” value ([2]; under conditions required for hydrolysis) was “no significant elution”.
